PMC9333443, “Structural insights into Pot1-ssDNA, Pot1-Tpz1 and Tpz1-Ccq1 Interactions within fission yeast shelterin complex” (PLoS Genetics, 2022)

B1: Tpz1, two-hybrid fusion, wild type (construct limits not stated) [S. pombe] / Ccq1, two-hybrid fusion, wild type (construct limits not stated) [S. pombe] (parent complex)
chain 1: MSNCLKHPWLENGLLNLIKNADVLPIRVFKCQPLQIFEYIRYEHPIRCKLSDTEFYIEAEFSSQSISDLNNFTEKRITSLRGGIVTLGNFLIHLIPSQSGIIPWIQVESFNFQGCEGAVFGNPKAITTSALFNALLQSPYLAALANEFNRSIKEGSSYQEASLSQQEKPNDNTSNSRDIKNNIQFHWKNMTSLSIEECIIPKGQQLILEKESEENTTHGIYLEERKMAQGLHNSVSETPEVKQEDNDEDLDAYSWSSSTDSAGEIPSLPTNRKILEKIAEKPPPFESPLEDDETPDQTNEHEANQVNVSQLPLNPRGSGISGRPVESTEQLNSSLTIERSQSIQSTDSKQRVETQSHRRSKIEIFDAQDELFDRSICTTIDDSTGKLLNAEETPIKTGDLHSTSASSVISCTPPAINFTSDICNEQIELEYKRKPIPDYDFMKGLETTLQELYVEHQSKKRRLELFQLTNNHQKNSEACEMCRLGLPHGSFFELLRDWKKIEEFRNKS
chain 2: MSEINDFTNSIIINESDTKYEVYSEVNSSNRWIAKEDCPSPLEDVWLLKLAGHKRKLEEPLSCMRNEEPASKQREIEKFLRTDLDHSENDFLTQEVDEFPSTQQLFPIPLQNDTAFDSSEESITKSSKSSFSVLDIGLPMSALQRKMMHRLVQYFAFCIDHFCTGPSDSRIQEKIRLFIQSAHNIAKHPSLYDTEVRNPSAAESTNSHVSLDASNFSSYAENSSKFLFLQELFKNLSPSYSKTFFLFISNQFLANTLTQWLKSQNIDAELWAEEDAKTSQHPAIWICVSKKAPSASHFLQSCPDLSATIFYDIEAYMSVTSSLPSIQSLVLRLIHLGSIEHAIKCFQSSYNASFLVNIVGVVATLSSSSEENSEASNLSTLFEKSGNFEEILGSESHSSITEKTRDIAKNVATWLKNGENFSSWPLPPLMDLASLSVAEPRDSQPSVSQVNDTFVKSSDSTFPSSQSMQSPSKLHSLTSNATDLLSSSSLKKNFFSQQEADEVELSNNYDLQGAAVQYLQRRLRMVEDELHEAINSKNVQQSRSEELEQQISKLTDNLQEYRNTVRELKLDLEKSKKKNEDLSKLEVEKVEEIANLKKELTHLAKQQEFGFKYVQEFSNEDLQGKLIEANEKNYKLTQLLKTQKEDADFITNQYQNASTFAAEQSKEVAKLQAECKRLQAINSKVMEEVKVYNDSRVEALLAKVSSLEETLKILEQKSLPKFTPHNQSPRIIDSN

Variants of: B1
Experiment: yeast two-hybrid (β-galactosidase); parent: 100; read off a plot

Row | Variant | percent of parent [% WT]
1 | chain 2 L177R | ~85
2 | chain 2 I185R | ~13
3 | chain 2 L151R | ~13
4 | chain 2 M147R | ~13

Next, values leading:

Row | percent of parent [% WT] | Variant
5 | ~31 | chain 2 E221R
6 | ~13 | chain 2 F155R
7 | ~16 | chain 2 L143R
8 | ~13 | chain 2 P189R

Variants of: B1
Experiment: as above
Remark: another data set of the same source

Row | Variant | percent of parent [% WT]
9 | chain 1 Y453R | ~16
10 | chain 1 L449R | ~15
11 | chain 1 F441A | ~14
12 | chain 1 K432A | ~72
13 | chain 1 H456A | ~100

Second part, the variant after the results:

Row | percent of parent [% WT] | Variant
14 | ~90 | chain 1 R433A
15 | ~15 | chain 1 Y439A
16 | ~100 | chain 1 D438A
17 | ~14 | chain 1 L445R
18 | ~65 | chain 1 P435A
